Data from PMC4600075, “Rapid kit-based ^68Ga-labelling and PET imaging with THP-Tyr^3-octreotate: a preliminary comparison with DOTA-Tyr^3-octreotate” (EJNMMI Research, 2015).

How the values were obtained:
[1] = PET scanning, tumour to organ/background ratios; settings: Balb/c nude, mouse, in vivo, iv, 1 ug, total radioactivity, PET images 1 h PI, ±SEM, n = 3
Method: (§1) All animal experiments were performed with approval from the Peter MacCallum animal ethics committee. Six- to eight-week-old Balb/c nude mice (Animal Resources Centre, Western Australia) were implanted subcutaneously on the right flank with three million AR42J cells (sourced from ATCC). Once the tumours reached a volume >150 mm^3, the animals (n = 3) were injected intravenously with 23–28 MBq [^68Ga(THP-TATE)] (containing 1 μg of THP-TATE). For blocking studies, animals (n = 3) were coinjected with Tyr^3-octreotate peptide (400 μg). For [^68Ga(DOTATATE)], the animals (n = 3) were injected with 8 MBq of the tracer (containing 1 μg of DOTATATE). At 1 h, the animals were anaesthetised and imaged on a Philips MOSAIC small animal PET scanner. The images were reconstructed using a 3D RAMLA algorithm and tracer uptake determined as described previously. On completion of the scan, animals were euthanised and tissues harvested, weighed and radioactivity counted using a gamma counter (Biomedex). Quantitation of PET images was performed using in-house software (MARVn 3.31). Regions of interest were drawn around tissues of interest and uptake ratio calculated as the maximum pixel intensity in the tumour divided by the average uptake in a mediastinal background region, liver or kidneys, as appropriate.

[2] = Ex vivo biodistribution; settings: Balb/c nude, mouse, in vivo, iv, 1 ug, total radioactivity, 1 h PI, ex vivo gamma counting, n = 3, ±SEM
Method: as §1

[3] = system: SSTR2-positive AR42J tumours; experiment: Ex vivo biodistribution; settings: 1 h PI, i.v., ex vivo gamma counting; n = 3, ±SEM
Method: as §1

C[C@@H](O)[C@H](NC(=O)[C@@H]1CSSC[C@H](NC(=O)[C@@H](Cc2ccccc2)NC(=O)CN2CCN(CC(=O)O)CCN(CC(=O)O)CCN(CC(=O)O)CC2)C(=O)N[C@@H](Cc2ccc(O)cc2)C(=O)N[C@H](Cc2c[nH]c3ccccc23)C(=O)N[C@@H](CCCCN)C(=O)N[C@@H]([C@@H](C)O)C(=O)N1)C(=O)O [[^68Ga(DOTATATE)], metal not drawn]
tissue to tissue ratio at 1 h ([1]; Tumour to kidney ratio, maximum tumour pixel intensity / average organ uptake): 5.7 ± 0.2
tissue to tissue ratio at 1 h ([1]; Tumour to liver ratio): 27.2 ± 3.9
tissue uptake at 1 h ([2]; AR42J tumour uptake): 14.4 ± 0.8 %ID/g
tissue uptake at 1 h ([2]; kidney retention): 5.6 ± 0.5 %ID/g
blood retention [3]: 0.3 ± 0.1 %ID g^−1
